In PMC10781284, “Fluorescence Super-Resolution Imaging Chip for Gene Silencing Exosomes”:

Biological target: PD-L1 (on HeLa exosomes) (human, UniProt Q9NZQ7 19-290)
Assay: fluorescence colocalization on captured exosomes (AF647/PKH26); 1 nM aptamer; exosomes captured by CD63 aptamer; microfluidic channel, PBS (10 mM, pH 7.4) washes, 2% BSA block at room temperature; exosomes in culture medium; binding buffer of the aptamer not stated
Conditions: protein: native; label: 5' Alexa Fluor 647

Sequence of PD-L1 (on HeLa exosomes) (Q9NZQ7 19-290): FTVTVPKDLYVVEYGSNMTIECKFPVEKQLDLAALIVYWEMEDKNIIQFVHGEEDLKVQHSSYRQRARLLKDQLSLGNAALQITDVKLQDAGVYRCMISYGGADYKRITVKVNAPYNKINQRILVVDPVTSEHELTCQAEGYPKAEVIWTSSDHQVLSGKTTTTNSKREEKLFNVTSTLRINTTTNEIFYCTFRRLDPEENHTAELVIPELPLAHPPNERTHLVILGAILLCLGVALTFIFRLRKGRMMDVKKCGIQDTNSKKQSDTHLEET

Does TACAGGTTCTGGGGGGTGGGTGGGGAACCTGTT (ssDNA) [PD-L1 aptamer (PD-L1 adaptor strand)] bind?
Result: binds
